Results from US20040138156A1, “Therapeutic regulation of deoxyribonuclease-1-like-3 activity” (priority 2002, published 2004).
“Also recorded” adds a separate entry of the source.

B1: D1: Murine deoxyribonuclease 1, glycosylated, supplied as media conditioned by transfected HeLa cells (protein, UniProt P49183 23-284, looked up)
Deoxyribonuclease-1: LRIAAFNIRTFGETKMSNATLSVYFVKILSRYDIAVIQEVRDSHLVAVGKLLDELNRDKPDTYRYVVSEPLGRKSYKEQYLFVYRPDQVSILDSYQYDDGCEPCGNDTFSREPAIVKFFSPYTEVQEFAIVPLHAAPTEAVSEIDALYDVYLDVWQKWGLEDIMFMGDFNAGCSYVTSSQWSSIRLRTSPIFQWLIPDSADTTVTSTHCAYDRIVVAGALLQAAVVPNSAVPFDFQAEYGLSNQLAEAISDHYPVEVTLRKI
B2: D1L3: Deoxyribonuclease 1-like 3; murine wild-type (C57BL, 89T) enzyme supplied as media conditioned by transfected HeLa cells (protein)
chain: LRLCSFNVRSFGASKKENHEAMDIIVKIIKRCDLILLMEIKDSSNNICPMLMEKLNGNSRRSTTYNYVISSRLGRNTYKEQYAFVYKEKLVSVKTKYHYHDYQDGDTDVFSREPFVVWFHSPFTAVKDFVIVPLHTTPETSVKEIDELVDVYTDVRSQWKTENFIFMGDFNAGCSYVPKKAWQNIRLRTDPKFVWLIGDQEDTTVKKSTSCAYDRIVLCGQEIVNSVVPRSSGVFDFQKAYDLSEEEALDVSDHFPVEFKLQSSRAFTNNRKSVSLKKRKKGNRS

Assays:
[1] = test system: bone marrow macrophages; experiment: Induction of D1L3 in cultured bone marrow macrophages (anti-D1L3 immunoblot, RDA, zymogram); format: cell-based, C57BL mice; conditions: 100 U/ml for the interferons
Procedure: FIG. 22. Normal and induced expression of D1L3 in murine macrophages. […] In anti-D1L3 blots of cell lysates, the protein is seen both as a ^˜34 kDa uncleaved molecule and a ^˜28 kDa cleaved molecule. […] Cells were plated on serum-coated tissue culture dishes and incubated overnight, the next morning, non-adherent cells (N) were rinsed vigorously with PBS 1×, and both adeherent (A) and non-adherent cells (N) from C57BL, NZB/W, BXSB, and MRL were lysed and immunoblotted with anti-D1L3. While the ^˜34 kDa size band consistent with uncleaved D1L3 is present in both adherent and non-adherent, the cleaved form (^˜28 kDa) is present almost exclusively in the adherent population of presumed macrophages. Also noticable are the higher levels of expression of D1L3 in the 3 latter lupus strains. Panel B: Untreated bone marrow macrophages from NZB/WF1 mice have a much higher baseline expression expression of D1L3 than C57BL macrophages.
Induction is present in macrophages from both strain though the absolute level of induction appears greater in C57BL than in the SLE-prone NZB/W F1 strain. NZB/W protein loads in Ifn-γ-negative lane is slightly underloaded relative to actin. Panel C: Bone marrow macrophages isolated from bone marrow (via adherence) from MRL and C57BL mice, and cultured for 2 days in vitro, were induced by Ifn-γ. […] No induction of D1L3, RDA-DNASE, or zymographic DNASE activity is evident upon tratement with 100 U/ml of Ifn-alpha. […] Panel D: Bone marrow macrophages from C57BL and MRL mice cultured for 7 days in the presence of GM-CSF were induced with Ifn-γ, again showing the higher baseline levels of 28 kDa enzyme in the lupus prone strain, and in C57BL showing induction of levels aftern Ifn-γ. […]
Assays of Murine Cells. […] Splenocytes were counted using a hemochromocytometer, and plated at 2 million cells/ml on plastic 6-well Falcon tissue culture dishes (Becton Dickinson) in RPMI with 10% FCS. […]

[2] = test system: Ad5.CMV-GFP; experiment: Adenoviral gene transduction of HeLa cells in conditioned media, GFP immunoblot; format: cell-based, adenovirus serotype 5; conditions: lysed at 72 hours
Procedure: FIG. 30. D3-media confers an in vitro barrier to adenoviral gene transduction (BT). This figure provides anti-GFP immunoblots at 1:5000 (Clontech) of Ad.V.GFP infected (MO 100:1) of 100,000 HeLa cells. Infection of HeLa cells with Ad5.CMV-GFP (a 1st generation (DE1/DE3) adenovirus serotype 5 expressing GFP under the control of CMV-IE promoter (Qbiogene)) was performed in the presence of D1, D3, D1+D3CT, or control conditioned media. Infected cells were lysed at 72 hours and tested for GFP expression (n=3 expts). […] Thus DNASE1L3 or DNASE enzymes linked to the D3CT diminish adenoviral gene transfer. […] Actin levels were generally equivalent in infected cells.

[3] = test system: HeLa cells; experiment: BT assay: liposomal N1-eGFP transfection of HeLa cells in DNASE-conditioned media, GFP immunoblot; format: cell-based; conditions: for GFP fluorescence by fluorescent microscopy: 24 hours; for BT activity / GFP expression or transfection efficiency in cells exposed to undiluted conditioned media: FuGENE-6; for GFP transfection in ten-fold diluted conditioned media: ten-fold (five and ten fold) dilution of conditioned media
Procedure: In the main assay, an eukaryotic marker such as green fluorescent protein (GFP) expression plasmid complexed with a lipid reagent is transfected into HeLa cells incubated in control media, D1L3-conditioned media, or D1-conditioned media (FIG. 4). The assay is not limited to the use of GFP as a marker, but could use any of many expressed biomarkers encoded by nucleotides that can be assayed either immunochemistry, fluorescent detection, or enzymatic detectection, and these include but are not circumscribed to luciferase, chloramphenicol acetyl-transferase, antibiotic or chemical resistance genes, Beta-galactosidase, FLAG-, myc-hemaglutinnin-, or other epitope tagged molecules, as well as other markers of gene or nucleotide transduction. The endpoint of the assay is the detection of a synthesized protein, but could easily have been the detection of a transcribed gene product, since the assay ultimately measures the ability of D1L3 added the media/milieu overlaying the cells to block the ultimate association of an expressible plasmid with the transcriptional machinery.
(§1) Transfection Reagents and Resistance Assays. Lipofection of respective pcDNA3.1-D1 or -D3 ([…] purified with Promega Wizard Plus DNA system) was performed independently into 1-2 million HeLa cells, which produce a low background of secreted nuclease activity, when grown in DMEM with 10% FCS (LifeTech) in 6 well culture plates (Becton-Dickinson). […] Media of the transfected cells were conditioned for 36-48 hours and served as source of the respective enzymes. Nuclease activity in conditioned supernatant was measured by RDAs, zymograms and by testing activity against supercoiled pBluescript (Stratagene).
To test for the ability of the nucleases to block transfection, the media in individual wells of naive HeLa cells were replaced with conditioned media, and cells transfected with […] of N1-eGFP plasmid (Clontech) using various transfection reagents (FIG. 11) and their respective protocols. GFP expression by immunoblot directly correlated with transfection efficiency in present experiments. Thus, transfection efficiency was compared by densitometric analysis of GFP immunoblots.
GFP expression was also examined by fluorescent microscopy using a FITC filter. For microscopy, cells were fixed for 5 minutes in 4% paraformaldehyde dissolved into 1% PBS.
Antibody Reagents and Immunoblotting. After 24-36 hours, cells transfected with N1-eGFP were lysed in SDS-buffer and immunoblotted for expression with anti-GFP at 1:5000 dilution (Clontech). To confirm nearly equal protein loading per lane, anti-β-actin monoclonal antibody at 1:7,000 dilution (Sigma) were prepared. For immunoblots, […] protein was eletrophoretically separated by 12% SDS-PAGE gel, followed by electrotransfer to Immobilon-P membranes (Millipore) for expression studies. Immunoblotting was performed using ECL detection (Amersham).
Transfection efficiency was compared, wherever possible, by pixel densitometry of the scanned images using Scion Image 4.02 software.

[4] = test system: liposomal-bound plasmid; experiment: Cell-free nuclease activity assay on free or FuGene-bound plasmid; format: biochemical; conditions: FuGene-bound plasmid, 37° C., 1 hour
Procedure: FIG. 16. […] Representative experiment (n=3) of exposure of […] free (−) or liposomal-bound (+FuGene) plasmid to control media with 10% fetal calf serum (lanes 1-2), D1 (lanes 3-4), D1L3 (lanes 5-6), D3DCT (lanes 7-8), and N196K-D3 (lanes 9-10).
Cell-Free Nuclease Activity Assay. Free plasmid DNA or plasmid complexed with lipofection reagent was incubated with conditioned at 37° C. for 1 hour. The incubation was terminated with […] EDTA, and DNA extracted using Promega Wizard DNA Purification System, eluted in […] water, and electrophoresed on a 1% agarose gel.

[5] = test system: free DNA; experiment: Radial diffusion assay (RDA) of nuclease activity against free DNA in conditioned media; format: biochemical; conditions: for mean RDA activity of conditioned media: 24 hours, 37 degrees
Procedure: as §1
Nuclease Assays. Nuclease activity against “naked” or free DNA in CM was quantified by densitometry of RDAs. For assays of media by murine cells, RDAs were performed using conditioned media, after 36 hour incubation of equal numbers of target cell population. Each conditioned media was sampled in triplicate. RDAs for all four mice were performed on a single dish. For RDAs, 2-5 ul of conditioned supernatant was dotted on 100 mm dishes containing 2% agarose, 250 ug/ml DNA, 0.001% EtBr, 0.5% filtered milk, 10 mM Ca^+2/MgCl2; and 12.5 ug/ml kanamycin. Multiple observations were generated for every sample obtained. After 24 hours of 37° incubation, plates are photographed under UV transillumination; and scanned photos were analyzed with NIH image. For RDAs, the activity was quantified as the product of mean density and area (traced on image) of zones of clearing. For observations of serum/urine, 2-5 ul of serum were dotted on agarose plates.
Zymograms are in-gel renaturation assays performed by SDS-PAGE through a gel impregnated with 200 µg/ml DNA and ethidium bromide, eluting away SDS with repeated washes in 25 mM Tris-HCl pH 7.5, then incubating for 12-16 hours at 37° C. in 25 mM Tris-HCl pH 7.5 with 10 mM Ca^+2/Mg^+2 buffer. Activity is measured as dark “bands” of DNA digestion (Rosenthal et al., (1977) Anal. Biochem. 80, 76-90) and quantified using scanned images using NIH Image. Photographed RDA results were scanned 600 dpi Tiff images, and activity was measured as pixel area times density of traced zones of clearing (n=3 for each zone). Student's T-test was used to compare paired results. Nuclease activity ratios were obtained by comparing intra-plate results.

[6] = media conditioned by transfected HeLa cells

Molecule	induction of D1L3 in macrophages [1]	GFP expression after Ad5.CMV-GFP infection / barrier to infection [2]	GFP fluorescence by fluorescent microscopy [3]	BT activity / GFP expression or transfection efficiency in cells exposed to undiluted conditioned media ([3]; anti-GFP immunoblot)	state of liposome-bound plasmid after exposure to conditioned media [4]	mean RDA activity of conditioned media [5, 6]	further results
CCCCCCCCCCCCCC(=O)O[C@@H]1[C@@H](C)[C@@]2(O)[C@@H](C=C(CO)C[C@]3(O)C(=O)C(C)=C[C@@H]23)[C@@H]2C(C)(C)[C@]12OC(C)=O [PMA, phorbol myristate acetate]	inducible	–	–	–	–	–	–
lipopolysaccaride [LPS]	inducible	–	–	–	–	–	–
B1	–	increased expression of GFP	abundant GFP	did not differ significantly from controls; also recorded: no significant decrease; also recorded: no effect	all remaining plasmid migrated in a nicked or linearized conformation	28.2 Units	mean ratio of GFP expression in exposed cells versus control ([3]; n=20 assays, anti-GFP immunoblot): 0.8 ± 0.2; RDA activity relative to D1L3 conditioned media ([5]; densitometry of RDAs, n=24 assays): ~2.7 fold; RDA nuclease activity of conditioned media (in words) [5, 6]: greater RDA activity than D3
B2	–	afford a barrier to infection	absence of GFP fluorescence	No GFP expression; also recorded: effectively blocks transfection efficiency	mostly supercoiled plasmid is protected	12.0 Units	GFP expression after Ad5.CMV-GFP infection / barrier to infection ([2]; listed as D3): prevents GFP expression; BT effect of diluted conditioned media ([3]; diluted 100 fold with control media or 10-fold with N196K conditioned media): complete BT effect; GFP transduction after pre-incubation in conditioned media ([3]; naive cells incubated six hours, rinsed twice with PBS, transfected in control media): blocked; GFP transfection in ten-fold diluted conditioned media [3]: No GFP expression is clearly detectable; GFP transfection in ten-fold diluted conditioned media ([3]; listed as 89T): nearly completely blocks GFP transduction; also recorded: no GFP transfection efficiency; GFP transfection in ten-fold diluted conditioned media ([3]; listed as D3): No GFP expression is clearly detectable; BT activity / GFP expression or transfection efficiency in cells exposed to undiluted conditioned media ([3]; anti-GFP immunoblot, listed as 89T): saturated BT activity; BT activity / GFP expression or transfection efficiency in cells exposed to undiluted conditioned media ([3]; anti-GFP immunoblot, listed as D3): prevents GFP expression; also recorded: abolished; state of liposome-bound plasmid after exposure to conditioned media ([4]; listed as D1L3-CM): does not completely digest liposomal-bound DNA
